Read-outs that look alike come from different tables or passages of the source. Values belong to the binder of their own block, whether it stands above or below them.
Key:
[1] = molecular target: T1, human CTLA4 protein expressed on cells (CHOK1-CTLA4, HEK293-CTLA4) (human, UniProt P16410 36-223); assay: flow cytometry on CHOK1-CTLA4 cells
T1 construct: whole, on cells; also called CHOK1-CTLA4 cells; HEK293-CTLA4 single-positive cells
T1 sequence (looked up): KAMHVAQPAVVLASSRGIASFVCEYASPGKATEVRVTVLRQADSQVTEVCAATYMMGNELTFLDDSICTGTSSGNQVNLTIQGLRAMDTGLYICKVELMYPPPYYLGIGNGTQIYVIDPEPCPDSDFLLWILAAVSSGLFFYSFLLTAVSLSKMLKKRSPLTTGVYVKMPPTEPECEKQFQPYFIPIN

[2] = molecular target: T1, human CTLA4 protein expressed on cells …; assay: flow cytometry on CHOK1-CTLA4 cells; remark: listed apart in the source
[3] = molecular target: T1, human CTLA4 protein expressed on cells …; assay: flow cytometry, blocking of CHOK1-CTLA4 cells binding to CHOK1-CD80 cells (competitor: CD80 on cells)
[4] = molecular target: T2, human TIGIT protein expressed on cells (CHOK1-TIGIT) (human, UniProt Q495A1 22-244); assay: flow cytometry on CHOK1-TIGIT cells
T2 construct: whole, on cells; also called CHOK1-TIGIT cells
T2 sequence (looked up): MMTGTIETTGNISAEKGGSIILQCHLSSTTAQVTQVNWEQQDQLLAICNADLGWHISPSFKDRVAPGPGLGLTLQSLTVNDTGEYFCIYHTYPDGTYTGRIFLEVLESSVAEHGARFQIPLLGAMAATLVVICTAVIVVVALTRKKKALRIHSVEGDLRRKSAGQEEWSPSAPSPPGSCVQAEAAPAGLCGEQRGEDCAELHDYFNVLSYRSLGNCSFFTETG

[5] = molecular target: T3, human TIGIT (Acro Biosystems Cat#TIT-H52H5) (human, UniProt Q495A1 22-141); assay: SPR (Biacore 8K), antibody captured on Protein A chip, antigen as analyte, 1:1 binding
T3 construct: Soluble bought protein; also called TIGIT protein; human TIGIT antigen
T3 sequence (looked up): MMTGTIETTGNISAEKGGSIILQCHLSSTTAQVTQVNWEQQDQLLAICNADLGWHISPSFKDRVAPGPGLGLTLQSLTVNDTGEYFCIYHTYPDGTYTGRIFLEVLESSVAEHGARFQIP

[6] = molecular target: T3, human TIGIT (Acro Biosystems …); assay: SPR (Biacore 8K), antigen captured by anti-His antibody on CM5 chip, antibody as analyte, 1:1 binding
[7] = molecular target: T2, human TIGIT protein expressed on cells …; assay: flow cytometry, blocking of CHOK1-TIGIT cells binding to CHOK1-CD155 cells (competitor: CD155 on cells)

B1: Anti-CTLA4 antibody Tre (antibody, V domains shown)
VH: QVQLVESGGGVVQPGRSLRLSCAASGFTFSSYGMHWVRQAPGKGLEWVAVIWYDGSNKYYADSVKGRFTISRDNSKNTLYLQMNSLRAEDTAVYYCARDPRGATLYYYYYGMDVWGQGTTVTVSS
VL: DIQMTQSPSSLSASVGDRVTITCRASQSINSYLDWYQQKPGKAPKLLIYAASSLQSGVPSRFSGSGSGTDFTLTISSLQPEDFATYYCQQYYSTPFTFGPGTKVEIK
- EC50 [1]: 1.27 nM
- EC50 [2]: 0.53 nM
- IC50 [3]: 0.49 nM

B4: Anti-TIGIT antibody RG6058 (antibody, V domains shown)
VH: EVQLQQSGPGLVKPSQTLSLTCAISGDSVSSNSAAWNWIRQSPSRGLEWLGKTYYRFKWYSDYAVSVKGRITINPDTSKNQFSLQLNSVTPEDTAVFYCTRESTTYDLLAGPFDYWGQGTLVTVSS
VL: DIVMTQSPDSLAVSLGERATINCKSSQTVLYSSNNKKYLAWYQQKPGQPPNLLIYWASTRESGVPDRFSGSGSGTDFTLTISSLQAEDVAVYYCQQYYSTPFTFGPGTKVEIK
- EC50 [4]: 0.48 nM
- IC50 [7]: 0.67 nM

Continued, values first:

- EC50 [4]: 0.72 nM
- Kd [5]: 0.0411 nM
- koff [5]: 7.13e-05 s⁻¹
- kon [5]: 1.73e+06 M⁻¹ s⁻¹
- Kd [6]: 0.535 nM
- koff [6]: 0.00052 s⁻¹
- kon [6]: 972000 M⁻¹ s⁻¹
- IC50 [7]: 1.44 nM
B2: anti-CTLA4/TIGIT antibody As-3 (bispecific antibody, human IgG1, kappa)
heavy 1: QVQLVESGGGVVQPGRSLRLSCAASGFTFSSYTMHWVRQAPGKGLEWVTFISYDGNNKYYADSVKGRFTISRDNSKNTLYLQMNSLRAEDTAIYYCARTGWLGPFDYWGQGTLVTVSSGGGGSSGAPRFLTRPKASVVSVGKDATLSCQIVGNPFPQVSWEKDKQPVTAGVRFRLAQDGDLYRLKILDLQLSDSGQYVCRARNAHGEAFACLGLQVDAEADKTHTCPPCPAPELLGGPDVFLFPPKPKDTLMISRTPEVTCVVVDVSHEDPEVKFNWYVDGVEVHNAKTKPREEQYNSTYRVVSVLTVLHQDWLNGKEYKCKVSNKALPLPEEKTISKAKGQPREPQVYTLPPCREEMTKNQVSLWCLVKGFYPSDIAVEWESNGQPENNYKTTPPVLDSDGSFFLYSKLTVDKSRWQQGNVFSCSVMHEALHNHYTQKSLSLSPGK
light 1: not shown
heavy 2: EVQLVQSGAEVKKPGASVKVSCKASGYTFTNYWMHWVRQAPGQGLEWMGRIDPDSTGSKYNEKFKTRVTMTRDTSTSTVYMELSSLRSEDTAVYYCAREGAYGYYFDYWGQGTLVTVSSASTKGPSVFPLAPSSKSTSGGTAALGCLVKDYFPEPVTVSWNSGALTSGVHTFPAVLQSSGLYSLSSVVTVPSSSLGTQTYICNVNHKPSNTKVDKKVEPKSCDKTHTCPPCPAPELLGGPDVFLFPPKPKDTLMISRTPEVTCVVVDVSHEDPEVKFNWYVDGVEVHNAKTKPREEQYNSTYRVVSVLTVLHQDWLNGKEYKCKVSNKALPLPEEKTISKAKGQPREPQVCTLPPSREEMTKNQVSLSCAVKGFYPSDIAVEWESNGQPENNYKTTPPVLDSDGSFFLVSKLTVDKSRWQQGNVFSCSVMHEALHNHYTQKSLSLSPGK
light 2: DIQMTQSPSSLSASVGDRVTITCRASENIYSYLAWYQQKPGKSPKLLIYNARTLAEGVPSRFSGSGSGTDFTLTISSLQPEDFATYYCQYHSGSPLPFGGGTKVEIKRTVAAPSVFIFPPSDEQLKSGTASVVCLLNNFYPREAKVQWKVDNALQSGNSQESVTEQDSKDSTYSLSSTLTLSKADYEKHKVYACEVTHQGLSSPVTKSFNRGEC

- EC50 [2]: 3.35 nM
- EC50 [4]: 0.43 nM
- IC50 [3]: 1.42 nM
- IC50 [7]: 0.42 nM
B3: anti-CTLA4/TIGIT antibody S-15 (bispecific antibody)
heavy: EVQLVQSGAEVKKPGASVKVSCKASGYTFTNYWMHWVRQAPGQGLEWMGRIDPDSTGSKYNEKFKTRVTMTRDTSTSTVYMELSSLRSEDTAVYYCAREGAYGYYFDYWGQGTLVTVSSASTKGPSVFPLAPSSKSTSGGTAALGCLVKDYFPEPVTVSWNSGALTSGVHTFPAVLQSSGLYSLSSVVTVPSSSLGTQTYICNVNHKPSNTKVDKKVEPKSCDGGGGSGGGGSGGGGSQVQLVESGGGVVQPGRSLRLSCAASGFTFSSYGMHWVRQAPGKGLEWVAVIWYDGSNKYYADSVKGRFTISRDNSKNTLYLQMNSLRAEDTAVYYCARDPRGATLYYYYYGMDVWGQGTTVTVSSGGGGSSGAPRFLTRPKASVVSVGKDATLSCQIVGNPFPQVSWEKDKQPVTAGVRFRLAQDGDLYRLKILDLQLSDSGQYVCRARNAHGEAFACLGLQVDAEADKTHTCPPCPAPELLGGPDVFLFPPKPKDTLMISRTPEVTCVVVDVSHEDPEVKFNWYVDGVEVHNAKTKPREEQYNSTYRVVSVLTVLHQDWLNGKEYKCKVSNKALPLPEEKTISKAKGQPREPQVYTLPPSREEMTKNQVSLTCLVKGFYPSDIAVEWESNGQPENNYKTTPPVLDSDGSFFLYSKLTVDKSRWQQGNVFSCSVMHEALHNHYTQKSLSLSPGK
light 1: B2 light 2
light 2: DIQMTQSPSSLSASVGDRVTITCRASQSINSYLDWYQQKPGKAPKLLIYAASSLQSGVPSRFSGSGSGTDFTLTISSLQPEDFATYYCQQYYSTPFTFGPGTKVEIKGGGGSGIPPKIECLPIDISIDEGKVLTVASAFTGEPTPEVTWSTGGRKIHSQEQGRFHIENTDDSTTLTIKDVQKQDGGLYTLTLRNEFGSDSATVNIHIRSI
notes: Symmetric bispecific antibody with one kind of heavy chain and two kinds of light chain

Reference: EP4772539A1 (Jiangsu Hengrui Pharmaceuticals Co., Ltd., dated 2026)
